Assay: colorimetric beta-lactamase activity assay with Nitrocefin (method of O'Callaghan)
Type: biochemical
Conditions: particles formed from aqueous solution with ethanol and supercritical CO2; tested colorimetrically with Nitrocefin
From the text: This illustrates the successful use of the method and apparatus of the invention in preparing particulate protein products in a controlled manner, even where the proteins are insoluble in, or incompatible with, organic solvents.

B1: R-TEM beta-lactamase (protein, UniProt P62593 24-286, looked up)
Beta-lactamase TEM: HPETLVKVKDAEDQLGARVGYIELDLNSGKILESFRPEERFPMMSTFKVLLCGAVLSRVDAGQEQLGRRIHYSQNDLVEYSPVTEKHLTDGMTVRELCSAAITMSDNTAANLLLTTIGGPKELTAFLHNMGDHVTRLDRWEPELNEAIPNDERDTTMPAAMATTLRKLLTGELLTLASRQQLIDWMEADKVAGPLLRSALPAGWFIADKSGAGERGSRGIIAALGPDGKPSRIVVIYTTGSQATMDERNRQIAEIGASLIKHW
notes: water-soluble protein R-TEM beta-lactamase, batch number 1TEM1L88, formed into particles by the method of the invention
**Q.** For B1, which “enzymatic activity of the particulate product” value is on record?
**A.** The value was “retained substantial enzymatic activity”.
